From patent publication US20250163167A1 (SYNTHEKINE, published 2025)

T1: human IL-10 receptor (hIL-10R alpha and beta chains) on HEK-Blue IL-10 reporter cells (human, UniProt Q13651 22-578; Q08334 20-325)
T1 sequence 1: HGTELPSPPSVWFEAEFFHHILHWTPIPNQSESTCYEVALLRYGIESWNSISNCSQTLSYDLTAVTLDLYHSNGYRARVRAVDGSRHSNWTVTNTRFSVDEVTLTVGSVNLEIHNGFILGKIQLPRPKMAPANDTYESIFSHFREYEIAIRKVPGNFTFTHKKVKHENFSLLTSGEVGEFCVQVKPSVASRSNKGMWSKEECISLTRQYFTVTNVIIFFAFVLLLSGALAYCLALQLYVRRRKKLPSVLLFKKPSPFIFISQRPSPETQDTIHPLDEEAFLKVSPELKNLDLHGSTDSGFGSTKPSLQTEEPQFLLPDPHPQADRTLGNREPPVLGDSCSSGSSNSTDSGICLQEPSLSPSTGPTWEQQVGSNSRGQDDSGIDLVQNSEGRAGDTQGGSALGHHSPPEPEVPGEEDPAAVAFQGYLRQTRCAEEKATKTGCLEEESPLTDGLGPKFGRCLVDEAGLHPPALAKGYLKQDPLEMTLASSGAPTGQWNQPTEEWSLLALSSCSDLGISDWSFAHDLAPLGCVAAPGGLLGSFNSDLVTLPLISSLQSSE
T1 sequence 2: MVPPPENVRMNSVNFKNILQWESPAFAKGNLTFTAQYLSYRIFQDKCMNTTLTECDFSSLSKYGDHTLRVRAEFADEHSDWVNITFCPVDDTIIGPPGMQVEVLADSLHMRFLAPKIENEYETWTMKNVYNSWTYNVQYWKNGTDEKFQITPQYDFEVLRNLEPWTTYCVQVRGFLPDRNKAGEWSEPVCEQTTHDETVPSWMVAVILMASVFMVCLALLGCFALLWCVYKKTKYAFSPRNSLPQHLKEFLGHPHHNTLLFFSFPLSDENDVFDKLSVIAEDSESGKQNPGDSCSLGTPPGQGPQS


biological target: T1, human IL-10 receptor (hIL-10R alpha and …); test: cell-based or functional assay

Row | Binder | Abs 630 (25 nM) [Abs 630] | Abs 630 (100 nM) [Abs 630]
1 | IL10R binding molecule of SEQ ID NO: 331 (bispecific antibody) QVQLQESGGGSVQAGGSLRLSCTVSRYTASVNYMGWFRQAPGKEREGVATIFTGAGTTYYANSVKGRFTISRDNAKNTAYLQMNSLKPEDTAIYYCAVDFRGGLLYRPAYEYTYRGQGTQVTVSSGGGSQVQLQESGGGSVQAGGSLRLSCGASGYTYSSYCMGWFRQVPGKEREGVAVIDSDGSTSYADSVKGRFTISKDNGKNTLYLQMNSLKPEDTAMYYCAADLGHYRPPCGVLYLGMDYWGKGTQVTVSSASHHHHHH | 0.5 | 0.41
2 | IL10R binding molecule of SEQ ID NO: 339 (bispecific antibody) QVQLQESGGGSVEAGGSLRLSCAASGYTHSSYCMGWFRQAPGKEREGVAAIDVDGSTTYADSVKGRFTISKDNAKNTLYLQMNSLKPEDTGMYYCAAEFADCSSNYFLPPGAVRYWGQGTQVTVSSGGGSQVQLQESGGGSVQAGGSLRLSCAASGYSNCSYDMTWYRQAPGKEREFVSAIHSDGSTRYADSVKGRFFISQDNAKNTVYLQMNSLKPEDTAMYYCKTDPLHCRAHGGSWYSVRANYWGQGTQVTVSSASHHHHHH | 0.49 | 0.42
3 | IL10R binding molecule of SEQ ID NO: 332 (bispecific antibody) QVQLQESGGGSVQAGGSLRLSCTVSRYTASVNYMGWFRQAPGKEREGVATIFTGAGTTYYANSVKGRFTISRDNAKNTAYLQMNSLKPEDTAIYYCAVDFRGGLLYRPAYEYTYRGQGTQVTVSSGGGSQVQLQESGGGSVQAGGSLRLSCAASGYSNCSYDMTWYRQAPGKEREFVSAIHSDGSTRYADSVKGRFFISQDNAKNTVYLQMNSLKPEDTAMYYCKTDPLHCRAHGGSWYSVRANYWGQGTQVTVSSASHHHHHH | 0.47 | 0.36
4 | IL10R binding molecule of SEQ ID NO: 262 (bispecific antibody) QVQLQESGGGSVQAGGSLRLSCAASRYLYSIDYMAWFRQSPGKEREPVAVIYTASGATFYPDSVKGRFTISQDNAKMTVYLQMNSLKSEDTAMYYCAAVRKTDSYLFDAQSFTYWGQGTQVTVSSGGGSQVQLQESGGGSVQTGGSLRLSCAASGYTYLRGCMGWFRQAPGKEREGVAVMDVVGDRRSYIDSVKGRFTISRDNAANSVYLQMDNLKPEDTAMYYCTAGPNCVGWRSGLDYWGQGTQVTVSSASHHHHHH | 1.38 | 0.4
5 | IL10R binding molecule of SEQ ID NO: 334 (bispecific antibody) QVQLQESGGGSVEAGGSLRLSCAASGYTHSSYCMGWFRQAPGKEREGVAAIDVDGSTTYADSVKGRFTISKDNAKNTLYLQMNSLKPEDTGMYYCAAEFADCSSNYFLPPGAVRYWGQGTQVTVSSGGGSQVQLQESGGGSVQAGGSLRLSCAASRFTYSSYCMGWFRQAPGKEREGVASIDSDGSTSYTDSVKGRFTISKDNAKNTLYLQMNSLKPEDTAMYYCALDLMSTVVPGFCGFLLSAGMDYWGKGTQVTVSSASHHHHHH | 1.43 | 1.14
6 | IL10R binding molecule of SEQ ID NO: 333 (bispecific antibody) QVQLQESGGGSVEAGGSLRLSCAASGYTHSSYCMGWFRQAPGKEREGVAAIDVDGSTTYADSVKGRFTISKDNAKNTLYLQMNSLKPEDTGMYYCAAEFADCSSNYFLPPGAVRYWGQGTQVTVSSGGGSQVQLQESGGGSVQAGGSLRLSCAASRYLYSIDYMAWFRQSPGKEREPVAVIYTASGATFYPDSVKGRFTISQDNAKMTVYLQMNSLKSEDTAMYYCAAVRKTDSYLFDAQSFTYWGQGTQVTVSSASHHHHHH | 0.49 | 0.54
7 | IL10R binding molecule of SEQ ID NO: 338 (bispecific antibody) QVQLQESGGGSVEAGGSLRLSCAASGYTHSSYCMGWFRQAPGKEREGVAAIDVDGSTTYADSVKGRFTISKDNAKNTLYLQMNSLKPEDTGMYYCAAEFADCSSNYFLPPGAVRYWGQGTQVTVSSGGGSQVQLQESGGGSVQAGGSLRLSCGASGYTYSSYCMGWFRQVPGKEREGVAVIDSDGSTSYADSVKGRFTISKDNGKNTLYLQMNSLKPEDTAMYYCAADLGHYRPPCGVLYLGMDYWGKGTQVTVSSASHHHHHH | 0.51 | 0.41
8 | IL10R binding molecule of SEQ ID NO: 342 (bispecific antibody) QVQLQESGGGSVQAGGSLRLSCAASGYSYSSYCMGWFRQAPGKEREGVATIDSDGMTRYADSVKGRFTISKDNAKNTLYLQMNSLKPEDTAMYYCAAPLYDCDSGAVGRNPPYWGQGTQVTVSSGGGSQVQLQESGGGSVQAGGSLRLSCAASGYTYSMYCMGWFRQAPGKEREGVAQINSDGSTSYADSVKGRFTISKDNAKNTLYLQMNSLKPEDTAMYYCAADSRVYGGSWYERLCGPYTYEYNYWGQGTQVTVSSASHHHHHH | 0.45 | 0.36
9 | IL10R binding molecule of SEQ ID NO: 263 (bispecific antibody) QVQLQESGGGSVQAGGSLRLSCAASRFTYSSYCMGWFRQAPGKEREGVASIDSDGSTSYTDSVKGRFTISKDNAKNTLYLQMNSLKPEDTAMYYCALDLMSTVVPGFCGFLLSAGMDYWGKGTQVTVSSGGGSQVQLQESGGGSVQAGGSLRLSCAASGYTYSSGCMGWFRQAPGKEREAVAAINSDGSTSYADSVKGRFTISKDNAKNTLYLQMNSLKPEDTAMYYCAAEPYCSGGYPRWSVAEFGYWGQGTQVTVSSASHHHHHH | 1.77 | 1.02
10 | IL10R binding molecule of SEQ ID NO: 335 (bispecific antibody) QVQLQESGGGSVEAGGSLRLSCAASGYTHSSYCMGWFRQAPGKEREGVAAIDVDGSTTYADSVKGRFTISKDNAKNTLYLQMNSLKPEDTGMYYCAAEFADCSSNYFLPPGAVRYWGQGTQVTVSSGGGSQVQLQESGGGSVQAGGSLRLSCAASGYTYSMYCMGWFRQAPGKEREGVAQINSDGSTSYADSVKGRFTISKDNAKNTLYLQMNSLKPEDTAMYYCAADSRVYGGSWYERLCGPYTYEYNYWGQGTQVTVSSASHHHHHH | 0.5 | 0.44
11 | IL10R binding molecule of SEQ ID NO: 340 (bispecific antibody) QVQLQESGGGSVQAGGSLRLSCAASGYSYSSYCMGWFRQAPGKEREGVATIDSDGMTRYADSVKGRFTISKDNAKNTLYLQMNSLKPEDTAMYYCAAPLYDCDSGAVGRNPPYWGQGTQVTVSSGGGSQVQLQESGGGSVQAGGSLRLSCAASRYLYSIDYMAWFRQSPGKEREPVAVIYTASGATFYPDSVKGRFTISQDNAKMTVYLQMNSLKSEDTAMYYCAAVRKTDSYLFDAQSFTYWGQGTQVTVSSASHHHHHH | 0.46 | 0.51
12 | IL10R binding molecule of SEQ ID NO: 337 (bispecific antibody) QVQLQESGGGSVEAGGSLRLSCAASGYTHSSYCMGWFRQAPGKEREGVAAIDVDGSTTYADSVKGRFTISKDNAKNTLYLQMNSLKPEDTGMYYCAAEFADCSSNYFLPPGAVRYWGQGTQVTVSSGGGSQVQLQESGGGSVQAGGSLRLSCTVSGYTYSSNCMGWFRQAPGKEREGVATIYTGGGNTYYADSVKGRFTISQDNAKNTVYLQMNNLKPEDTAMYYCAAEPLSRVYGGSCPTPTFDYWGQGTQVTVSSASHHHHHH | 0.49 | 0.4
13 | IL10R binding molecule of SEQ ID NO: 336 (bispecific antibody) QVQLQESGGGSVEAGGSLRLSCAASGYTHSSYCMGWFRQAPGKEREGVAAIDVDGSTTYADSVKGRFTISKDNAKNTLYLQMNSLKPEDTGMYYCAAEFADCSSNYFLPPGAVRYWGQGTQVTVSSGGGSQVQLQESGGGSVQAGGSLRLSCAVSGYAYSTYCMGWFRQAPGKEREGVAAIDSGGSTSYADSVKGRFTISKDNAKNTLYLRMNSLKPEDTAMYYCAAVPPPPDGGSCLFLGPEIKVSKADFRYWGQGTQVTVSSASHHHHHH | 0.54 | 0.45
14 | IL10R binding molecule of SEQ ID NO: 330 (bispecific antibody) QVQLQESGGGSVQAGGSLRLSCTVSRYTASVNYMGWFRQAPGKEREGVATIFTGAGTTYYANSVKGRFTISRDNAKNTAYLQMNSLKPEDTAIYYCAVDFRGGLLYRPAYEYTYRGQGTQVTVSSGGGSQVQLQESGGGSVQAGGSLRLSCTVSGYTYSSNCMGWFRQAPGKEREGVATIYTGGGNTYYADSVKGRFTISQDNAKNTVYLQMNNLKPEDTAMYYCAAEPLSRVYGGSCPTPTFDYWGQGTQVTVSSASHHHHHH | 0.45 | 0.36
15 | IL10R binding molecule of SEQ ID NO: 341 (bispecific antibody) QVQLQESGGGSVQAGGSLRLSCAASGYSYSSYCMGWFRQAPGKEREGVATIDSDGMTRYADSVKGRFTISKDNAKNTLYLQMNSLKPEDTAMYYCAAPLYDCDSGAVGRNPPYWGQGTQVTVSSGGGSQVQLQESGGGSVQAGGSLRLSCAASRFTYSSYCMGWFRQAPGKEREGVASIDSDGSTSYTDSVKGRFTISKDNAKNTLYLQMNSLKPEDTAMYYCALDLMSTVVPGFCGFLLSAGMDYWGKGTQVTVSSASHHHHHH | 0.6 | 0.48
